The target in the assay is p53pΔF19. Description: ITC.

B1: p53-binding domain of human MdmX (N-MdmX, amino acids 22-110) (domain or fragment)
chain: GQINQVRPKLPLLKILHAAGAQGEMFTVKEVMHYLGQYIMVKQLYDQQEQHMVYCGGDLLGELLGRQSFSVKDPSPLYDMLRKNLVTLA
Molecule B1 returned a Kd of 20.1 µM.

Values taken from paper PMC8885691 (2022).
